Numbering of substitutions follows the chain as printed.
How the values were obtained:
ZF5 zinc finger 4 mutant = biological target: T1, ZF5 zinc finger 4 mutant (Homo sapiens, UniProt O43829 O43829:1-449, C363S); assay: EMSA; no shift detected; conditions: tags: untagged and N-terminal 6xMyc versions; label: 32P
T1 sequence: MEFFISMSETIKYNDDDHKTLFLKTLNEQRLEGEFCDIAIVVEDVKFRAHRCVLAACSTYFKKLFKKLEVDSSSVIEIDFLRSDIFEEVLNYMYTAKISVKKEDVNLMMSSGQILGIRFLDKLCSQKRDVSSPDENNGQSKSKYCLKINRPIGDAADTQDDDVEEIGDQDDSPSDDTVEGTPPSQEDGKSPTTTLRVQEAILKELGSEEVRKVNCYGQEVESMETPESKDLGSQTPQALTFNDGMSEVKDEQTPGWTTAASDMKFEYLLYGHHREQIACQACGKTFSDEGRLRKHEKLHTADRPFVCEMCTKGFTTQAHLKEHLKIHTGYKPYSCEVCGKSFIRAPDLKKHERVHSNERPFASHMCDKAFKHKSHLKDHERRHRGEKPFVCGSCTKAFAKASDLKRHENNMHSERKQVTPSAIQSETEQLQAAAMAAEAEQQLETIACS

[1] = biological target: T2, ZF5C (clone A25, C-terminal ZF5 fragment) (Homo sapiens, UniProt O43829 O43829:308-449); assay: EMSA; blocked by wild-type RRS competitor; conditions: tags: N-terminal 6xMyc; label: 32P
T2 sequence: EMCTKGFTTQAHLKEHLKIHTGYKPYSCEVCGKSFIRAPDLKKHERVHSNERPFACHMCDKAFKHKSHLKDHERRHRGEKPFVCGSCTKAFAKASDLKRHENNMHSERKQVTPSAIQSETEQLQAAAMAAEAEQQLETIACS

Rep78 = biological target: T3, Rep78 (UniProt Q89268 Q89268:1-621); assay: EMSA; blocked by wild-type RRS competitor; conditions: label: 32P
T3 sequence: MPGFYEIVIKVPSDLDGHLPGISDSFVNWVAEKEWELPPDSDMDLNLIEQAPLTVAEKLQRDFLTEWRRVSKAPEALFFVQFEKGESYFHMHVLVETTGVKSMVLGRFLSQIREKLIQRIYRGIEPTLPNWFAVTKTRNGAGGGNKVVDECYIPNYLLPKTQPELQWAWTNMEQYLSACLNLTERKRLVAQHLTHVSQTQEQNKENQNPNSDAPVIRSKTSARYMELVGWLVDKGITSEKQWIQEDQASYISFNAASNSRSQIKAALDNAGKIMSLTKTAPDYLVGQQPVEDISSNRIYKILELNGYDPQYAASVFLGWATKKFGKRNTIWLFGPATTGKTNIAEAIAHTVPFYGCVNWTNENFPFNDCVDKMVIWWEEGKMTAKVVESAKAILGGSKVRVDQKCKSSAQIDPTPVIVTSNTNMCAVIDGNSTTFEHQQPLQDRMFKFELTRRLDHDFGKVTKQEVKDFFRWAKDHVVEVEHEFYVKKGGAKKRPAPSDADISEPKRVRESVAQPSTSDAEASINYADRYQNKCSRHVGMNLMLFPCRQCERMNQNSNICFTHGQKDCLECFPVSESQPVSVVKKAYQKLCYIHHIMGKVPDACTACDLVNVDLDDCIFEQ

ZF5 = biological target: T4, ZF5 (Homo sapiens, UniProt O43829 O43829:1-449); assay: EMSA; competed by excess unlabeled wild-type RRS; conditions: tags: untagged and N-terminal 6xMyc versions; label: 32P
T4 sequence: T1 sequence with S363C

B1: RRS probe (core of 32-bp oligonucleotide) (dsDNA)
DNA 1: CTGCGCGCTCGCTCGCTCAC
DNA 2: GTGAGCGAGCGAGCGCGCAG
B1: no binding (ZF5 zinc finger 4 mutant); binds [1]; binds (Rep78). B1: binds (ZF5).
